From PMC9482650, “Quantitative fragmentomics allow affinity mapping of interactomes” (Nature Communications, 2022)

T1: SHANK1, Q9Y566
T1 sequence (Q9Y566 658-767, limits assumed, looked up): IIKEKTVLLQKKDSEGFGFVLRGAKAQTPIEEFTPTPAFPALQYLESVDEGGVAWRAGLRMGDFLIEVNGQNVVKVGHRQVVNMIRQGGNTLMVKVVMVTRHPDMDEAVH

T2: GRIP1_5, Q9Y3R0
T2 sequence (Q9Y3R0 568-668, limits assumed, looked up): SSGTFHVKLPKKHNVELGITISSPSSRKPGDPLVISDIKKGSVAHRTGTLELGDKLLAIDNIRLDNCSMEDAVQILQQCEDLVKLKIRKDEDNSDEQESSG

T3: RADIL, Q96JH8
T3 sequence (Q96JH8 971-1071, limits assumed, looked up): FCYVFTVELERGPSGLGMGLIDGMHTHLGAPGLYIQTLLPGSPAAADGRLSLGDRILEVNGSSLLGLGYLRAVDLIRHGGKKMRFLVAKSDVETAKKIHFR

T4: DLG3_3, Q92796
T4 sequence (Q92796 374-475, limits assumed, looked up): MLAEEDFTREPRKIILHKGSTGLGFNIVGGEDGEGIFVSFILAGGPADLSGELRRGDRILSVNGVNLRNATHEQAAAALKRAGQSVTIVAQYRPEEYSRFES

T5: MPDZ_5, O75970
T5 sequence (O75970 695-796, limits assumed, looked up): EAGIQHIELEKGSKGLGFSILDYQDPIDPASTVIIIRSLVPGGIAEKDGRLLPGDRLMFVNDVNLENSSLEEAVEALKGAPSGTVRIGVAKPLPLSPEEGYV

T6: APBA1_1, Q02410
T6 sequence (Q02410 651-752, limits assumed, looked up): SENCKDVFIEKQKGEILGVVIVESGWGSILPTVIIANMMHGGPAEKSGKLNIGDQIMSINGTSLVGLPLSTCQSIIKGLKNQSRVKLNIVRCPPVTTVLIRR

T7: DLG3_2, Q92796
T7 sequence (Q92796 221-321, limits assumed, looked up): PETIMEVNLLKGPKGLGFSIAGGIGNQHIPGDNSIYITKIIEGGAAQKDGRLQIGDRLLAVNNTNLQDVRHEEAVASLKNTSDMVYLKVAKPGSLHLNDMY

T8: LIN7A, O14910
T8 sequence (O14910 103-200, limits assumed, looked up): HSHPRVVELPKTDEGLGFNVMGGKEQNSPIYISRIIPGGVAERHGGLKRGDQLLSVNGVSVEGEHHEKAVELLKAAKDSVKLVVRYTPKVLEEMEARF

T9: MPP6, Q9NZW5
T9 sequence (Q9NZW5 125-219, limits assumed, looked up): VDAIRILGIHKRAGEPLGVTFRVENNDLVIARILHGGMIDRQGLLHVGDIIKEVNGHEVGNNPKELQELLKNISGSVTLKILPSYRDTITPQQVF

T10: SIPA1L2, Q9P2F8
T10 sequence (Q9P2F8 945-1036, limits assumed, looked up): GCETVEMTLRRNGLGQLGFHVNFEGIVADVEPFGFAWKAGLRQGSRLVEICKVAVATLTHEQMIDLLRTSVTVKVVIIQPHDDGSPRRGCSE


What was measured:
Experiment in all cases: holdup assay
Set-up in all cases: key: below the threshold = too weak to quantify, mostly under pKd 3.1 to 4
Conditions in all cases: plain residues with an end cap or a label only (N-terminal biotin on a linker: ado-ado)
MAGI3_2, Q5TCQ9 = molecular target: MAGI3_2, Q5TCQ9
GORASP2, Q9H8Y8 = molecular target: GORASP2, Q9H8Y8
SHANK1, Q9Y566 = molecular target: T1, SHANK1, Q9Y566
SCRIB_3, Q14160 = molecular target: SCRIB_3, Q14160
GRIP1_5, Q9Y3R0 = molecular target: T2, GRIP1_5, Q9Y3R0
PDLIM1, O00151 = molecular target: PDLIM1, O00151
RADIL, Q96JH8 = molecular target: T3, RADIL, Q96JH8
DLG3_3, Q92796 = molecular target: T4, DLG3_3, Q92796
DLG5_1, Q8TDM6 = molecular target: DLG5_1, Q8TDM6
GRASP, Q7Z6J2 = molecular target: GRASP, Q7Z6J2
MPDZ_5, O75970 = molecular target: T5, MPDZ_5, O75970
APBA1_1, Q02410 = molecular target: T6, APBA1_1, Q02410
MAGI2_2, Q86UL8 = molecular target: MAGI2_2, Q86UL8
TJP1_2, Q07157 = molecular target: TJP1_2, Q07157
LDB3, O75112 = molecular target: LDB3, O75112
SCRIB_2, Q14160 = molecular target: SCRIB_2, Q14160
DLG3_2, Q92796 = molecular target: T7, DLG3_2, Q92796
LIN7A, O14910 = molecular target: T8, LIN7A, O14910
DLG4_3, P78352 = molecular target: DLG4_3, P78352
MAGI2_3, Q86UL8 = molecular target: MAGI2_3, Q86UL8
ARHGEF12, Q9NZN5-2 = molecular target: ARHGEF12, Q9NZN5-2
IL16_1, Q14005 = molecular target: IL16_1, Q14005
FRMPD4, Q14CM0 = molecular target: FRMPD4, Q14CM0
MPP6, Q9NZW5 = molecular target: T9, MPP6, Q9NZW5
SIPA1L2, Q9P2F8 = molecular target: T10, SIPA1L2, Q9P2F8
TJP2_1, Q9UDY2 = molecular target: TJP2_1, Q9UDY2
DLG2_2, Q15700 = molecular target: DLG2_2, Q15700
MAGI1_2, Q96QZ7 = molecular target: MAGI1_2, Q96QZ7
Chain of MAGI1_2, Q96QZ7 (Q96QZ7 456-580): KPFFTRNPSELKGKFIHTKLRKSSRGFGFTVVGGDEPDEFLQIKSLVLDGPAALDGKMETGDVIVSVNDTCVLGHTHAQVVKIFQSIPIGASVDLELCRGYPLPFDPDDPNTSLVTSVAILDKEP

Chain of DLG4_3, P78352 (P78352 306-403): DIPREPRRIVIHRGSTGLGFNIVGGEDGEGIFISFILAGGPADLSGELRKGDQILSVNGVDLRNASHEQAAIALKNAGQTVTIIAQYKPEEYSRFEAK
Chain of PDLIM1, O00151 (O00151 1-87): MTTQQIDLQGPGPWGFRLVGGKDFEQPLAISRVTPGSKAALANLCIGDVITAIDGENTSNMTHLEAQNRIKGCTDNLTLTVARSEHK
Chain of DLG2_2, Q15700 (Q15700 189-283): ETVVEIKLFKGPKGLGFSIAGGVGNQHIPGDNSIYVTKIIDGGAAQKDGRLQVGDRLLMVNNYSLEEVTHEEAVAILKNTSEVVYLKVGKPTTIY
Chain of FRMPD4, Q14CM0 (Q14CM0 67-160): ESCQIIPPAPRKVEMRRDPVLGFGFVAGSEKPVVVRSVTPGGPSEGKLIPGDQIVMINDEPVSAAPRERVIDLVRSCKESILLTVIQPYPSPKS
Chain of MAGI3_2, Q5TCQ9 (Q5TCQ9 398-503): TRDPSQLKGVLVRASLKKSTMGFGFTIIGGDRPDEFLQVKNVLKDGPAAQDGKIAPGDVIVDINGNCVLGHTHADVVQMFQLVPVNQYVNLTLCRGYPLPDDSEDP
Chain of DLG5_1, Q8TDM6 (Q8TDM6 617-713): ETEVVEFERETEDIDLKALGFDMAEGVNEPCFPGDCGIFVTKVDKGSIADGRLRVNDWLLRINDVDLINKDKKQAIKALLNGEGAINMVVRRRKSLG
Chain of TJP1_2, Q07157 (Q07157 181-274): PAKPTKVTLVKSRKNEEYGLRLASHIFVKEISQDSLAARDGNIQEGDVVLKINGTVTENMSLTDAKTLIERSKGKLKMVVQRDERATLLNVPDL
Chain of MAGI2_3, Q86UL8 (Q86UL8 600-682): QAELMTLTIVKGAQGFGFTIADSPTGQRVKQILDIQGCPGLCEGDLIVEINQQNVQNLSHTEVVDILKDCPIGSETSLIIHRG
Chain of MAGI2_2, Q86UL8 (Q86UL8 410-522): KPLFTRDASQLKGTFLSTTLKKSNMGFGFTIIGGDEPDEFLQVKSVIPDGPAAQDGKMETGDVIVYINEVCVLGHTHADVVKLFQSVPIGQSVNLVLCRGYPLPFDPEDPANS
Chain of ARHGEF12, Q9NZN5-2 (Q9NZN5 other isoform, or with tags, fused parts or gaps): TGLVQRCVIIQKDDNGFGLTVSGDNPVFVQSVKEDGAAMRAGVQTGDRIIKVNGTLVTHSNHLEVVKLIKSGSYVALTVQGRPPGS
Chain of SCRIB_3, Q14160 (Q14160 999-1103): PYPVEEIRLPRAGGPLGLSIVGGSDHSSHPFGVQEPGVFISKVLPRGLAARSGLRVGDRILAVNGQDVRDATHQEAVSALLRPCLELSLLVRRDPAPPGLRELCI
Chain of IL16_1, Q14005 (Q14005 210-306): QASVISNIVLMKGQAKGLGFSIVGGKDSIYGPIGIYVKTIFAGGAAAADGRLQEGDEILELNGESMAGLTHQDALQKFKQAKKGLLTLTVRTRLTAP
Chain of SCRIB_2, Q14160 (Q14160 857-960): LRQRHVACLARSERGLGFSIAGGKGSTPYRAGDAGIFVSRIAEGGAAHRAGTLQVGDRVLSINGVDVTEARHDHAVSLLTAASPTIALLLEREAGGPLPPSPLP
Chain of TJP2_1, Q9UDY2 (Q9UDY2 24-128): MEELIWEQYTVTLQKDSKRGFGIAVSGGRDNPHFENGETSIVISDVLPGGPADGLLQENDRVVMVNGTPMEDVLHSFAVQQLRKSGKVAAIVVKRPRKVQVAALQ
Chain of GRASP, Q7Z6J2 (Q7Z6J2 96-193): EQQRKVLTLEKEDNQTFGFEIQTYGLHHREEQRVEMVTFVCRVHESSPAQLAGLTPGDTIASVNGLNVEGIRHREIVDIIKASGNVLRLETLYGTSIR
Chain of LDB3, O75112 (O75112 1-94): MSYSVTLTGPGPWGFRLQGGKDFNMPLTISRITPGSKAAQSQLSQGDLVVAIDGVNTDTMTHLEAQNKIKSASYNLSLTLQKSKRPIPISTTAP

Binder	pKd (MAGI3_2, Q5TCQ9)	pKd (GORASP2, Q9H8Y8)	pKd (SHANK1, Q9Y566)	pKd (SCRIB_3, Q14160)	pKd (GRIP1_5, Q9Y3R0)	pKd (PDLIM1, O00151)	pKd (RADIL, Q96JH8)	pKd (DLG3_3, Q92796)	pKd (DLG5_1, Q8TDM6)	pKd (GRASP, Q7Z6J2)	pKd (MPDZ_5, O75970)	pKd (APBA1_1, Q02410)	pKd (MAGI2_2, Q86UL8)	pKd (TJP1_2, Q07157)	pKd (LDB3, O75112)	pKd (SCRIB_2, Q14160)	pKd (DLG3_2, Q92796)	pKd (LIN7A, O14910)	pKd (DLG4_3, P78352)	pKd (MAGI2_3, Q86UL8)	other results
DFKHTKSFII [JAM2, P57087]	below the threshold	5.6	below the threshold	3.65	below the threshold	below the threshold	4.21	below the threshold	below the threshold	below the threshold	below the threshold	below the threshold	below the threshold	below the threshold	below the threshold	below the threshold	4.2	below the threshold	below the threshold	below the threshold	pKd (ARHGEF12, Q9NZN5-2): below the threshold; pKd (IL16_1, Q14005): below the threshold; pKd (FRMPD4, Q14CM0): below the threshold; pKd (MPP6, Q9NZW5): below the threshold; pKd (SIPA1L2, Q9P2F8): below the threshold; pKd (TJP2_1, Q9UDY2): below the threshold; pKd (DLG2_2, Q15700): below the threshold; pKd (MAGI1_2, Q96QZ7): below the threshold
GNDPDRGTSI [GRID2, O43424]	below the threshold	below the threshold	3.54	4.29	below the threshold	below the threshold	below the threshold	below the threshold	below the threshold	below the threshold	below the threshold	below the threshold	below the threshold	below the threshold	below the threshold	below the threshold	4.25	below the threshold	below the threshold	below the threshold	pKd (ARHGEF12, Q9NZN5-2): below the threshold; pKd (IL16_1, Q14005): below the threshold; pKd (FRMPD4, Q14CM0): below the threshold; pKd (MPP6, Q9NZW5): below the threshold; pKd (SIPA1L2, Q9P2F8): below the threshold; pKd (TJP2_1, Q9UDY2): below the threshold; pKd (DLG2_2, Q15700): below the threshold; pKd (MAGI1_2, Q96QZ7): below the threshold
SGDGKTSVWI [GJC1, P36383]	below the threshold	5.03	3.55	4.21	below the threshold	below the threshold	4.13	below the threshold	below the threshold	below the threshold	below the threshold	3.69	below the threshold	5	below the threshold	below the threshold	4.16	below the threshold	below the threshold	below the threshold	pKd (ARHGEF12, Q9NZN5-2): 3.61; pKd (IL16_1, Q14005): below the threshold; pKd (FRMPD4, Q14CM0): below the threshold; pKd (MPP6, Q9NZW5): below the threshold; pKd (SIPA1L2, Q9P2F8): below the threshold; pKd (TJP2_1, Q9UDY2): 4.82; pKd (DLG2_2, Q15700): below the threshold; pKd (MAGI1_2, Q96QZ7): below the threshold
EPAKETTTNV [SLC2A3, P11169]	below the threshold	3.49	3.68	3.82	below the threshold	below the threshold	3.62	below the threshold	below the threshold	3.69	below the threshold	below the threshold	3.51	below the threshold	below the threshold	3.68	4.15	below the threshold	3.7	below the threshold	pKd (ARHGEF12, Q9NZN5-2): 3.87; pKd (IL16_1, Q14005): below the threshold; pKd (FRMPD4, Q14CM0): 3.52; pKd (MPP6, Q9NZW5): 3.81; pKd (SIPA1L2, Q9P2F8): below the threshold; pKd (TJP2_1, Q9UDY2): below the threshold; pKd (DLG2_2, Q15700): 4.16; pKd (MAGI1_2, Q96QZ7): below the threshold
PGKKPEDSRV [SLCO2B1, O94956]	3.54	below the threshold	below the threshold	below the threshold	below the threshold	below the threshold	below the threshold	below the threshold	below the threshold	below the threshold	below the threshold	below the threshold	3.64	below the threshold	below the threshold	below the threshold	below the threshold	below the threshold	below the threshold	below the threshold	pKd (ARHGEF12, Q9NZN5-2): below the threshold; pKd (IL16_1, Q14005): 3.84; pKd (FRMPD4, Q14CM0): below the threshold; pKd (MPP6, Q9NZW5): below the threshold; pKd (SIPA1L2, Q9P2F8): below the threshold; pKd (TJP2_1, Q9UDY2): below the threshold; pKd (DLG2_2, Q15700): 3.5; pKd (MAGI1_2, Q96QZ7): below the threshold
